Consider 17 molecules from publication PMC10786891, “Massively parallel profiling of RNA-targeting CRISPR-Cas13d”.

The Kd is the concentration at which binding is half-saturated. Low readings indicate higher affinity, high ones lower affinity.

First the molecules themselves.
T1: EsCas13d, nuclease-dead (Eubacterium siraeum, UniProt B0MS50, R295A;H300A;R849A;H854A)
T1 sequence: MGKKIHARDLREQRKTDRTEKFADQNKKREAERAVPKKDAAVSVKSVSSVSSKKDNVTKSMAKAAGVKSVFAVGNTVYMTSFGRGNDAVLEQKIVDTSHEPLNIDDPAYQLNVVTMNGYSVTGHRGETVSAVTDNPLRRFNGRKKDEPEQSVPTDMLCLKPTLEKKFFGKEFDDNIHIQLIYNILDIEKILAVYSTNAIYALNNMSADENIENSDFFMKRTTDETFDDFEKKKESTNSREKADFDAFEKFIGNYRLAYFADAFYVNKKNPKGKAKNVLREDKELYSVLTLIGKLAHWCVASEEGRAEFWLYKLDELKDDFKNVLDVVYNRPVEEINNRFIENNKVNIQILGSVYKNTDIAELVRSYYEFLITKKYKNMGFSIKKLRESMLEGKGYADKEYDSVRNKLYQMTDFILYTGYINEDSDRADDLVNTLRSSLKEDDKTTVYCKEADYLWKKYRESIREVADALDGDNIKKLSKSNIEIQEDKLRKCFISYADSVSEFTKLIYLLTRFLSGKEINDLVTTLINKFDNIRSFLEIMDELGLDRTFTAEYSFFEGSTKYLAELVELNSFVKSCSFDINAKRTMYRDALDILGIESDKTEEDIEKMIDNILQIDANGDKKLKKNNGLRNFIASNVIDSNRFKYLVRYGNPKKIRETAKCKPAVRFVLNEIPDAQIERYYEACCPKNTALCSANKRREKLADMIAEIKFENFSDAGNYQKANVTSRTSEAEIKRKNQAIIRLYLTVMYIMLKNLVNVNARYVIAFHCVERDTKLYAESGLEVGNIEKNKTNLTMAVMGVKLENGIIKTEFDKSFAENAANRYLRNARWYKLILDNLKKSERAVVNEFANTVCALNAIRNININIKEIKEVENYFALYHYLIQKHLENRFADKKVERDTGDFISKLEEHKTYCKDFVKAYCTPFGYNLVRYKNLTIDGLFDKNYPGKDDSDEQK

B1: target 1 insC 3' of 16,insG 3' of 7 (mixed)
RNA 1: CACCCGUGCAAAAAUGCAGGGGUCUAAAACUGAGCGGAUAACCUCUCUAUGG
RNA 2: GGGAAUGGAUCCACAUCUACGAAUUCGUACCAUAGACGAGGUUAUCGCGCUCACCGAGAUCGGAAGAGCACACGU
B2: target 2 MT 5'PFS AUA 3'PFS UAA (mixed)
RNA 1: CACCCGUGCAAAAUUGCAGGGGUCUAAAACCUUCUCCAAAUUGUUUCAUCCU
RNA 2: GGGAAUGGAUCCACAUCUACGAAUUCAUAAGGAUGAAACAAUUUGGAGAAGUAAAGAUCGGAAGAGCACACGU
B3: target 2 MT 5'PFS AUA 3'PFS UAU (mixed)
RNA 1: B2 RNA 1
RNA 2: B2 RNA 2 with A54U
B4: target 2 MT 5'PFS AAA 3'PFS UAC (mixed)
RNA 1: B2 RNA 1
RNA 2: B2 RNA 2 with U28A, A54C
B5: target 2 MT 5'PFS GUA 3'PFS AAG (mixed)
RNA 1: B2 RNA 1
RNA 2: B2 RNA 2 with A27G, U52A, A54G
B6: target 2 MT 5'PFS AGU 3'PFS UCU (mixed)
RNA 1: B2 RNA 1
RNA 2: B2 RNA 2 with U28G, A29U, A53C, A54U
B7: target 2 MT 5'PFS AUU 3'PFS CGC (mixed)
RNA 1: B2 RNA 1
RNA 2: B2 RNA 2 with A29U, U52C, A53G, A54C
B8: target 2 MT 5'PFS UAG 3'PFS AGA (mixed)
RNA 1: B2 RNA 1
RNA 2: B2 RNA 2 with A27U, U28A, A29G, U52A, A53G
B9: target 2 MT 5'PFS AUC 3'PFS CAG (mixed)
RNA 1: B2 RNA 1
RNA 2: B2 RNA 2 with A29C, U52C, A54G
B10: target 2 MT 5'PFS AGG 3'PFS AGU (mixed)
RNA 1: B2 RNA 1
RNA 2: B2 RNA 2 with U28G, A29G, U52A, A53G, A54U
B11: target 2 MT 5'PFS UAG 3'PFS AGC (mixed)
RNA 1: B2 RNA 1
RNA 2: B2 RNA 2 with A27U, U28A, A29G, U52A, A53G, A54C
B12: target 2 MT 5'PFS CAU 3'PFS CAG (mixed)
RNA 1: B2 RNA 1
RNA 2: B2 RNA 2 with A27C, U28A, A29U, U52C, A54G
B13: target 2 MT 5'PFS GUA 3'PFS AAA (mixed)
RNA 1: B2 RNA 1
RNA 2: B2 RNA 2 with A27G, U52A
B14: target 2 MT 5'PFS GUA 3'PFS AAU (mixed)
RNA 1: B2 RNA 1
RNA 2: B2 RNA 2 with A27G, U52A, A54U
B15: target 2 MT 5'PFS AGU 3'PFS UCC (mixed)
RNA 1: B2 RNA 1
RNA 2: B2 RNA 2 with U28G, A29U, A53C, A54C
B16: target 2 MT 5'PFS CAC 3'PFS CCC (mixed)
RNA 1: B2 RNA 1
RNA 2: B2 RNA 2 with A27C, U28A, A29C, U52C, A53C, A54C
B17: target 2 MT 5'PFS UAG 3'PFS AGG (mixed)
RNA 1: B2 RNA 1
RNA 2: B2 RNA 2 with A27U, U28A, A29G, U52A, A53G, A54G

Positions count from the first letter of the chain named.

For this data set, the target named is T1, EsCas13d, nuclease-dead. As to the kind of experiment: crRNA (strand 1, pre-loaded); Mg2+; 40 mM Tris-HCl pH 7.5, 150 mM NaCl, 6 mM MgCl2, 1 mM DTT, 0.1% Tween-20, 0.2 mg/ml BSA; 25 C; 10 min per concentration, then washed. To be noted: tags: His6-TwinStrep-SUMO cleaved; N-terminal SNAP kept (SNAP-Surface 488); label: 3' end held by stalled T7 RNA polymerase.
In turn, B1 registered a Kd of 66 ± 14 nM.

In turn, B2 registered a dissociation constant (Kd) of 5.5 ± 1.1 nM. In the case of B3, binding was put at a Kd of 7.1 ± 1.4 nM.

In the case of B4, the Kd is about 6.7 nM.

For B5, the Kd was 7 ± 0.6 nM. With B6 the figure was 21.3 ± 3.4 nM; with B7, 7.8 ± 0.6 nM; with B8, 2.53 ± 0.33 nM. With B9 the figure was 80 ± 40 nM; with B10, 4.04 ± 0.32 nM; with B11, 1.91 ± 0.21 nM. As to B12, the Kd is 3.25 ± 0.3 nM. For B13 the value was 5.5 ± 0.7 nM. As to B14, binding was characterised by a dissociation constant (Kd) of 5.8 ± 0.6 nM. The molecule B15 registered a Kd of about 51 nM.

For the molecule B16, the Kd worked out at 25 ± 10 nM. For B17 the value was 2.74 ± 0.24 nM.
